Reference: patent publication US20120064064A1

Target: human IL1-R (human) (UniProt P14778)
Assay: cell-based or functional assay

Sequence of UniProt P14778 (P14778 18-569): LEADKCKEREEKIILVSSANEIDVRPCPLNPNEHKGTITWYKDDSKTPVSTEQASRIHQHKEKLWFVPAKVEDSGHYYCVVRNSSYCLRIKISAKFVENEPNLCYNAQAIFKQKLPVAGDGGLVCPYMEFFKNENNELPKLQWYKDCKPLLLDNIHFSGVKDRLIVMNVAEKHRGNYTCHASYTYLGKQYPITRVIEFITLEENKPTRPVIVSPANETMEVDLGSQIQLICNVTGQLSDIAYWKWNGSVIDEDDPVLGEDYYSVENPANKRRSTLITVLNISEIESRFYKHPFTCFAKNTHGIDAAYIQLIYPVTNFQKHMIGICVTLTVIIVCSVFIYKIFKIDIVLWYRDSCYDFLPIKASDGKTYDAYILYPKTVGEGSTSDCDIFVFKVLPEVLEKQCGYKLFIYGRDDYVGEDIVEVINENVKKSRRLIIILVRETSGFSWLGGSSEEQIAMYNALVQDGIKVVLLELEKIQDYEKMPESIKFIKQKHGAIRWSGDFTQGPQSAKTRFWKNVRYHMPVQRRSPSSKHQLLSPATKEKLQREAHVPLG

natural IL1-R antagonist (IL1-Ra) (from UniProt P18510 26-177) (ligand)
IL-8 release assay in MRC-5 cells (IL-1a stimulated), EC50: 0.074 nM
